For assay [1], the target named is Histone H2A-H2B dimer (H2B T112C labeled with Cy5.5) (X. laevis) (UniProt P06897).
The target is the same in assay [2]. This is another data set of the same source.

Turning to “6xHis-Yeast nucleosome assembly protein 1 (Nap1) (from UniProt P25293 1-417) (natural protein)”, the rate constant of H2A-H2B exchange between CpG methylated nucleosomes (three-color smFRET), in the presence of Nap1 in assay [1] stood at 626 M⁻¹ s⁻¹. The rate constant of H2A-H2B exchange between nucleosomes containing H3KS56ac (three-color smFRET), in the presence of Nap1 in assay [2] amounted to 1380 M⁻¹ s⁻¹.

For the origin of these results see PMC10406861.
